The assay concerns the target barnase (UniProt P00648). The experiment in a line: cell-based or functional assay.
UniProt P00648, sequence (P00648 48-157 limits assumed): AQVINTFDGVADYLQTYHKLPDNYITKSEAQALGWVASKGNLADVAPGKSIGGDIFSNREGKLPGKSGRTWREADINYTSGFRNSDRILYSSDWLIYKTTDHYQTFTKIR

Substance barstar (from UniProt P11540 2-90) yielded a percent LUC positive shoots from barstar5 explants transformed with pBH700 (against 15% from wild type explants without barstar) of 46%.
